Source: article PMC2064081

Biological target: MIM/IMD-L (IRSp53/MIM domain of mouse missing-in-metastasis, longer splice variant) (mouse) (UniProt Q8R1S4)
Test: SPR

MIM/IMD-L (IRSp53/MIM domain of mouse missing-in-metastasis, longer splice variant) (mouse), sequence (Q8R1S4 1-250, change not shown): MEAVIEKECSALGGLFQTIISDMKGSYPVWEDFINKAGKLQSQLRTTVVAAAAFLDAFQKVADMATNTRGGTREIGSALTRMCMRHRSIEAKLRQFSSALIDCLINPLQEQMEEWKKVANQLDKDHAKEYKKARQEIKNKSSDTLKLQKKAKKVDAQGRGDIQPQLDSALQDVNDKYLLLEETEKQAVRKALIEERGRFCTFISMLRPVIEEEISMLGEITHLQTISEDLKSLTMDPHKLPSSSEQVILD

Substance: GST-Rac (V12), dominant-active Rac (from UniProt P63000 1-192) (natural protein)
- equilibrium binding level relative to MIM/IMD-S: 10 to 15%
